Columns and labels:
[1] = biological target: FcRn (Sino Biological Inc, CT009-H08H) (UniProt P55899); test: SPR (Biacore X100), FcRn-His captured on anti-His IgG chip, antibody as analyte, steady-state affinity fit; first run
[2] = biological target: FcRn (Sino Biological Inc, CT009-H08H) (UniProt P55899); test: SPR (Biacore X100), FcRn-His captured on anti-His IgG chip, antibody as analyte, steady-state affinity fit; mean of the two runs
[3] = biological target: FcRn (Sino Biological Inc, CT009-H08H) (UniProt P55899); test: SPR (Biacore X100), FcRn-His captured on anti-His IgG chip, antibody as analyte, steady-state affinity fit; second run

Chain of UniProt P55899 (P55899 24-297 limits assumed, chain 1 of 2): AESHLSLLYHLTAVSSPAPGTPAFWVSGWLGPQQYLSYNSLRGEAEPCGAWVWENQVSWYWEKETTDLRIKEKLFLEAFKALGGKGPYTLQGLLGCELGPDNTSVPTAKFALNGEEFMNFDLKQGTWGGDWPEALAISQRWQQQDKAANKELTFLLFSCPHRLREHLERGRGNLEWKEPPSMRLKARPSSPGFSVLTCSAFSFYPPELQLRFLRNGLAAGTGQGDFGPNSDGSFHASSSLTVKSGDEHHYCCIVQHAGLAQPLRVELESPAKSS
Chain of UniProt P55899 (P61769 21-119 limits assumed, chain 2 of 2, further chain): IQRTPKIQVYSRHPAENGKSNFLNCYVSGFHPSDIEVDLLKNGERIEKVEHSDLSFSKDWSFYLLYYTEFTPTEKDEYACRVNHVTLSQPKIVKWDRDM

MIL41: a PERJETA sample as prepared by the inventors, which is in consistence with the amino acid sequence of PERJETA (antibody)
Kd [1]: 534 nM
Kd [2]: 492 nM
Kd [3]: 450 nM
